In patent US20040132121A1, “Method of identifying antibacterial compounds” (priority 2000, published 2004):
Where “and” joins values, the source holds several entries; their conditions need not be identical. Equal values may be shown once.

Target: Escherichia coli β subunit of DNA Polymerase III (β protein) (Escherichia coli), P0A988
Sequence (P0A988 whole entry): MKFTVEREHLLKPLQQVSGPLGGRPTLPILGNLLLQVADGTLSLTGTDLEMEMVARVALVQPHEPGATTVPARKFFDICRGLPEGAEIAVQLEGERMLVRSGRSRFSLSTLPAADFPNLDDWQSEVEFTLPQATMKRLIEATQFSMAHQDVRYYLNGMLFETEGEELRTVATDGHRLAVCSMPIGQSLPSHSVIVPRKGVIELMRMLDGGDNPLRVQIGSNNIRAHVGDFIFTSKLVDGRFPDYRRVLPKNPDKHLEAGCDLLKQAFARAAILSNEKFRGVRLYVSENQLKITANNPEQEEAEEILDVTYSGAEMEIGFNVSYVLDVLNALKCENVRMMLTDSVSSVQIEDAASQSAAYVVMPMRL

For EAQLDLFDS (modifications not checked) [peptide 112d … (UmuC1, native flanking sequences)], the IC50 was 1 µM and 3.6 µM.
